Test results as given in paper PMC6256979, “Screening and Improvement of an Anti-VEGF DNA Aptamer”.

B1: Vap7 (ssDNA)
DNA: ATACCAGTCTATTCAATTGCACTCTGTGGGGGTGGACGGGCCGGGTAGATAGTATGTGCAATCA
modifications: G-quadruplex

Assays:
VEGF-A121 = VEGF-A121 (Homo sapiens (Human), UniProt P15692 27-147, none (E. coli)); test: SPR; TBSE 10 mM Tris-HCl pH 7.0, 100 mM NaCl, 0.05 mM EDTA (folded with 50 mM KCl in Fig 3), 24 C; VEGF on CM5; conditions: chain copies: 2
VEGF-A165 = VEGF-A165 (Homo sapiens (Human), UniProt P15692 27-191, N-glycosylated (Sf21)); test: as above; conditions: chain copies: 2
VEGF-A165, sequence (P15692 other isoform, or with tags, fused parts or gaps): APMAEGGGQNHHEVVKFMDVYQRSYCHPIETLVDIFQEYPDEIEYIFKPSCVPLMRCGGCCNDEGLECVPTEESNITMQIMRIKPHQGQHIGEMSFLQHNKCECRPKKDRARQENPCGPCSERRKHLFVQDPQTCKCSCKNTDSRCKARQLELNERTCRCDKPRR

VEGF-A121, sequence (P15692 other isoform, or with tags, fused parts or gaps): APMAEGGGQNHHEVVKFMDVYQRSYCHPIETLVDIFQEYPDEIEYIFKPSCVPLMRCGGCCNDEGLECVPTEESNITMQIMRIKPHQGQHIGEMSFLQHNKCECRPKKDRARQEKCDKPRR

Binder	Kd (VEGF-A121)	Kd (VEGF-A165)
B1	1 nM	20 nM
TGTGGGGGTGGACGGGCCGGGTAGA (ssDNA, G-quadruplex) [V7t1]	1.1 nM	
